For experiment [1], the target named is Mouse recombinant PrP (mouse). Briefly: direct ELISA, coated denatured rPrP 1 ng/assay. (In general: An ELISA detects its analyte on a solid surface through an enzyme-linked reagent.)
Experiment [2] deals with Sheep recombinant PrP (sheep). The experiment can be described thus: direct ELISA, coated denatured rPrP 1 ng/assay.
The target in experiment [3] is Bovine recombinant PrP (bovine). Briefly: direct ELISA, coated denatured rPrP 1 ng/assay.
For experiment [4], the target named is Deer recombinant PrP (deer). The experiment can be described thus: direct ELISA, coated denatured rPrP 1 ng/assay.
For experiment [5], the target named is Human recombinant PrP (human). Briefly: direct ELISA, coated denatured rPrP 1 ng/assay.
The target of experiment [6] is Mouse recombinant PrP (mouse). Briefly: direct ELISA, coated denatured rPrP 0.1 ng/assay.
Experiment [7] addresses Sheep recombinant PrP (sheep). Briefly: direct ELISA, coated denatured rPrP 0.1 ng/assay.
In experiment [8] the target is Bovine recombinant PrP (bovine). Briefly: direct ELISA, coated denatured rPrP 0.1 ng/assay.
Experiment [9] has as its target Deer recombinant PrP (deer). The experiment can be described thus: direct ELISA, coated denatured rPrP 0.1 ng/assay.
In experiment [10] the target is Human recombinant PrP (human). Briefly: direct ELISA, coated denatured rPrP 0.1 ng/assay.
The target in experiment [11] is Mouse BH PrP^Sc (mouse). Briefly: direct ELISA, coated denatured mouse BH PrP^Sc 1 mg BH/assay.
The target of experiment [12] is Mouse BH PrP^Sc (mouse). The experiment can be described thus: direct ELISA, coated denatured mouse BH PrP^Sc 0.1 mg BH/assay.
Experiment [13] deals with Human PrP^C (normal human plasma; normal human brain homogenate) (human). Briefly: sandwich ELISA, capture SAF-32; normal human BH, trypsin 25 ug/mL, un-denatured.
For experiment [14] the target is unchanged. The experiment can be described thus: sandwich ELISA, capture SAF-32; normal human BH, PK 25 ug/mL, un-denatured.
The target of experiment [15] is Human PrP^Sc of vCJD brain homogenate (vCJD MM, White strain) (human).
The target in experiment [16] is Human PrP^C (normal human plasma; normal human brain homogenate) (human).
Experiment [17] addresses Human PrP^Sc of vCJD brain homogenate (vCJD MM, White strain) (human). The experiment can be described thus: sandwich ELISA, capture SAF-32; vCJD human BH, PK 25 ug/mL, 4M GdnHCl-denatured.
For experiment [18] the target is unchanged. Briefly: sandwich ELISA, capture SAF-32; vCJD human BH, PK 25 ug/mL, un-denatured.
For experiment [19] the target is unchanged. The experiment can be described thus: sandwich ELISA, capture SAF-32; vCJD human BH, trypsin 25 ug/mL, un-denatured.

“And” between values parts separate entries of the source, which are not always exact repeats. Equal values may be shown once. Read-outs that look alike come from different tables or passages of the source.

As to HuM D13 (antibody), the RLU amounted to 294 RLU in experiment [1]; 161 RLU in [2]; 93.1 RLU in [3]; 130 RLU in experiment [4]; 69.9 RLU in experiment [5]; 117 RLU in experiment [6]. The RLU in experiment [7] came out at 179 RLU; in experiment [8], 75.1 RLU; in experiment [9], 232 RLU; in experiment [10] it was 89.5 RLU; with Mouse BH PrP^Sc (mouse) [11] it was 664 RLU; with Mouse BH PrP^Sc (mouse) [12] it was 239 RLU.

As for HuM D18 (antibody), the RLU in experiment [1] is 1770 RLU; in experiment [2], 186 RLU; in [3], 132 RLU; in experiment [4] it was 121 RLU; in [5], 94.7 RLU; in experiment [6], 366 RLU. The RLU was determined as 169 RLU in experiment [7]; 109 RLU in experiment [8]; 134 RLU in experiment [9]; 77.5 RLU in experiment [10]; 2230 RLU with Mouse BH PrP^Sc (mouse) [11]; 376 RLU with Mouse BH PrP^Sc (mouse) [12].

Mouse anti Prion (MAB5424) (antibody): the RLU in experiment [1] worked out at 605 RLU; in experiment [2] it was 899 RLU; in experiment [3], 827 RLU; in [4] it was 118 RLU; in experiment [5] it was 67.6 RLU; in experiment [6], 90.1 RLU. Moreover, the RLU was 214 RLU in experiment [7]; 84.6 RLU in experiment [8]; 104 RLU in experiment [9]; 76.1 RLU in experiment [10]; 601 RLU in the experiment with Mouse BH PrP^Sc (mouse) [11]; 167 RLU with Mouse BH PrP^Sc (mouse) [12].

For Mouse anti Prion (SAF-32) (antibody), the RLU stood at 73.3 RLU in experiment [1]; 1440 RLU in experiment [2]; 2400 RLU in experiment [3]; 2320 RLU in [4]; 1570 RLU in experiment [5]; 97.6 RLU in experiment [6]. In addition, the RLU came out at 294 RLU in [7]; 450 RLU in experiment [8]; 457 RLU in [9]; 285 RLU in [10]; 551 RLU with Mouse BH PrP^Sc (mouse) [11]; 176 RLU in the experiment with Mouse BH PrP^Sc (mouse) [12].

Regarding Mouse anti Prion (SAF-53) (antibody), the RLU in experiment [1] turned out to be 612 RLU; in [2], 154 RLU; in [3] it was 145 RLU; in [4], 263 RLU; in experiment [5] it was 93.5 RLU; in experiment [6], 70.8 RLU. In addition, the RLU in experiment [7] turned out to be 100 RLU; in experiment [8], 76.6 RLU; in experiment [9] it was 144 RLU; in experiment [10] it was 85.2 RLU; in the experiment with Mouse BH PrP^Sc (mouse) [11], 667 RLU; with Mouse BH PrP^Sc (mouse) [12], 165 RLU.

Turning to Mouse anti Prion (SAF-61) (antibody), the RLU turned out to be 464 RLU in [1]; 113 RLU in experiment [2]; 136 RLU in [3]; 190 RLU in experiment [4]; 101 RLU in experiment [5]; 142 RLU in [6]. The RLU was 115 RLU in experiment [7]; 67.6 RLU in experiment [8]; 150 RLU in [9]; 90.4 RLU in [10]; 579 RLU in the experiment with Mouse BH PrP^Sc (mouse) [11]; 169 RLU in the experiment with Mouse BH PrP^Sc (mouse) [12].

On to Mouse anti Prion (SAF-83) (antibody), for which the RLU in experiment [1] came to 2230 RLU; in experiment [2], 115 RLU; in [3] it was 50.8 RLU; in [4], 125 RLU; in experiment [5], 67 RLU; in experiment [6], 181 RLU. Further, the RLU in experiment [7] was determined as 98.1 RLU; in experiment [8] it was 45.7 RLU; in experiment [9], 122 RLU; in [10], 65.2 RLU; in the experiment with Mouse BH PrP^Sc (mouse) [11], 1730 RLU; with Mouse BH PrP^Sc (mouse) [12], 274 RLU.

Consider mAb 6H4 (antibody), for which the RLU in experiment [1] worked out at 332 RLU; in experiment [2], 160 RLU; in [3] it was 691 RLU; in experiment [4], 222 RLU; in experiment [5], 192 RLU; in [6], 104 RLU. The RLU amounted to 125 RLU in experiment [7]; 89.1 RLU in [8]; 92.4 RLU in experiment [9]; 72.7 RLU in [10]; 610 RLU with Mouse BH PrP^Sc (mouse) [11]; 178 RLU with Mouse BH PrP^Sc (mouse) [12].

For the substance mAb to prion 7D9 (antibody), the RLU in experiment [1] worked out at 769 RLU; in experiment [2], 993 RLU; in [3] it was 961 RLU; in [4] it was 117 RLU; in experiment [5], 66.1 RLU; in experiment [6] it was 118 RLU. Also, the RLU in experiment [7] was 230 RLU; in experiment [8], 149 RLU; in [9] it was 121 RLU; in experiment [10], 81.4 RLU; in the experiment with Mouse BH PrP^Sc (mouse) [11], 614 RLU; with Mouse BH PrP^Sc (mouse) [12], 159 RLU.

Turning to mAb to prion BDI115 (antibody), the RLU came out at 86.7 RLU in [1]; 104 RLU in experiment [2]; 177 RLU in experiment [3]; 160 RLU in experiment [4]; 74.3 RLU in experiment [5]; 54.7 RLU in experiment [6]. The RLU is 108 RLU in experiment [7]; 59.1 RLU in experiment [8]; 105 RLU in experiment [9]; 48 RLU in experiment [10]; 116 RLU with Mouse BH PrP^Sc (mouse) [11]; 119 RLU with Mouse BH PrP^Sc (mouse) [12].

Turning to monoclonal antibody 3F4, the RLU in experiment [13] is 6.1 RLU; in [14] it was 7.7 RLU; in experiment [15], 1650 RLU; in experiment [16], 50.4 RLU and 18.1 RLU; in [17], 226 RLU; in [18] it was 10 RLU. Besides, the RLU in experiment [19] was determined as 15.1 RLU.

These data come from patent US20100196934A1.
